Measured values published in patent US11820827B2, “Methods of treating myelodysplastic syndrome and acute myeloid leukemia with nonfucosylated anti-CD70 antibodies” (Seagen Inc., priority 2019, dated 2023).
Several values for one entry are separate records, joined by “and”; a condition that tells them apart may be missing. Equal entries are not always repeated.

What was measured:
[1] = test system: NOMO-1 CD70+ target cells; assay: ADCP with monocyte-derived macrophages, NOMO-1; type: cell-based, human; details: flow cytometry, antibody dose-dependent
Protocol: Phagocytosis of fluorescently labeled target cells was determined by flow cytometry. Phagocytosis was measured for the appearance of double-labeled coincident events (fluorescent target cells) and anti-CD11c positivity to identify monocyte/macrophages.
The following protocol was used to assess […] activity on AML cell lines: • 1. Target cells were labeled using the PKH26 Red Fluorescent Cell Linker Mini Kit (Sigma Aldrich) and following the manufacturer's instructions. • 2. Cells (4000 cells/well) were incubated with the indicated test articles for 30 minutes, washed and resuspended in RPMI plus 10% ultra-low IgG FBS. • 3. PBMC-derived macrophages (100,000 cells/well), generated by incubating PBMC-derived monocytes with 500 U/mL (50 ng/mL) GM-CSF for 10-12 days, were added to the target cells and incubated at 37° C. for 2 hours. • 4. Plates were centrifuged and cells resuspended in 100 μl of APC-CD11 antibody (macrophage marker) and incubated on ice for 30 minutes. • 5. Cells were washed, resuspended in PBS and analyzed by flow cytometry to determine the percentage of phagocytosis

[2] = test system: NOMO-1 CD70+ AML cell line; assay: ADCC assay with NK effector cells, NOMO-1; type: cell-based, human; details: effector-to-target ratio 10:1, 4 h
Protocol: ADCC activity was evaluated using two CD70+AML cell lines as an ADCC target (FIGS. 3A and 3B). The AML cell lines, MOLM-13 (FIG. 3A) and NOMO-1 (FIG. 3B), were labeled and mixed with titrations of test antibodies or isotype control. Effector cells were isolated from cryopreserved normal donor PBMC using the EasySep Human NK Cell Enrichment Kit (Stem Cell Technologies). Effector cells were added at an effector-to-target cell ratio of 10:1 with […]. After a 4-h incubation, the percent specific cell lysis was calculated.
AML cell lines were grown in appropriate growth medium while incubating at 37° C. in 5% CO2. Suspended cells were counted using ViCell XR cell counter. The required volume of cells was mixed with fresh growth medium and plated at seeding densities of 0.5 M/mL.
The following protocol was used to assess ADCC activity: • 1. Two vials of huPBMCs were thawed in the 37° C. waterbath and resuspended in 1% FBS-RPMI media. Cells were spun down and then NK cells were isolated using the EasySep human NK cell enrichment kit following the manufacturer's protocol. • 2. […] Absorbance per well was measured using the SpectraMax 190 plate reader at 490 nm and the acquired values were converted to text file and exported to Excel and into GraphPad Prism for further data analysis. • 9. […]

[3] = test system: T regulatory cells (Treg) in PBMCs; assay: Treg depletion in PBMCs; type: cell-based, human; details: 24 hours
Protocol: At the end of the experiment cells were stained with Zombie Aqua Viability Dye and total viable Treg naïve and memory CD4 and CD8 T cell numbers were assessed. […] Fucosylated (WT Clone 13 IgG1) and nonfucosylated (SEA Clone 13 IgG1) antibodies targeting TIGIT were used as positive controls (FIG. 4E-4H).

MV4-11 AML xenograft = assay: Tumor growth in the MV4-11 AML xenograft model, SEA-CD70 and azacitidine (Example 10); type: in vivo, SCID mice
[4] = test system: MV-411 acute myeloid leukemia model; assay: Tumor growth in the MV-411 acute myeloid leukemia xenograft model (Example 7); type: in vivo, SCID mice; details: for tumor volume, individual animals: h1F6SEA 10 mg/kg Q4dx4
[5] = test system: FcγRIIIa (F/F low affinity and V/V high affinity alleles); assay: BLI binding affinity to FcγRIIIa (low and high affinity alleles); design: species or system human; details: compared with SGN-70
Excerpt: Parameters are listed Table 1. Biotinylated avi-tagged human FcγR-monomeric Fc N297A LALA-PG and Fc receptor neonatal (FcRN) monomeric Fc N297A IHH fusion proteins (designed and expressed at Seattle Genetics) were loaded onto high precision streptavidin biosensors (ForteBio) to responses between 0.3 to 1 nm following a 100 second sensor check in Buffer A (0.1% bovine serum albumin [BSA], 0.02% Tween20, 1× phosphate-buffered saline [PBS] pH 7.4). After another baseline measurement, titrated antibodies were associated for 600, 10, 100, 50, and 10 seconds and dissociated for 1000, 50, 100, 500, and 50 seconds in Buffer B (1% casein, 0.2% Tween20, 1×PBS pH 7.4) for FcγRI, IIa, IIIa, FcRN pH 6, and FcRN pH 7.4, respectively. Prior to analysis, the references were subtracted in each assay. All the sensorgrams were processed with a Y-axis alignment at the start of association and an inter-step dissociation correction. A 1:1 Langmuir isotherm global fit model was used to fit the curves.

B1: SEA-CD70: humanized, nonfucosylated monoclonal IgG1 antibody targeting CD70 (nonfucosylated h1F6) (antibody, chains of the INN, looked up, V domains shown)
VH: QVQLVQSGAEVKKPGASVKVSCKASGYTFTNYGMNWVRQAPGQGLKWMGWINTYTGEPTYADAFKGRVTMTRDTSISTAYMELSRLRSDDTAVYYCARDYGDYGMDYWGQGTTVTVSS
VL: DIVMTQSPDSLAVSLGERATINCRASKSVSTSGYSFMHWYQQKPGQPPKLLIYLASNLESGVPDRFSGSGSGTDFTLTISSLQAEDVAVYYCQHSREVPWTFGQGTKVEIK
modifications: nonfucosylated
- phagocytosis of antibody-coated target cells by macrophages [1]: readily phagocytosed target cells
- lysis of target cells in ADCC assay [2]: induced lysis of two CD70 positive AML cell lines in a dose-dependent fashion
- T regulatory cell depletion ([3]; donor homozygous for high affinity FcγRIIIa (V/V 158)): did not induce Treg cell depletion
- T regulatory cell depletion ([3]; donor homozygous for low affinity FcγRIIIa (F/F 158)): Neither CD70 targeting antibody induced T regulatory cell depletion
- effect on tumor growth (MV4-11 AML xenograft; antibody 10 mg/kg Q4dx5, azacitidine 2 mg/kg Q1dx5 for 3 cycles): reduce tumor growth
- delay in tumor growth (MV4-11 AML xenograft; from time to 10× fold change compared to untreated control): 31%
- delay in tumor growth ([4]; from time to 10× fold change versus untreated, h1F6SEA 10 mg/kg, azacitidine 5 mg/kg): 18%
- tumor volume, individual animals ([4]; day 9 post implant): 51.0 mm^3 and 59.2 mm^3 and 59.0 mm^3 and 52.1 mm^3 and 54.1 mm^3 and 58.6 mm^3
- tumor volume, individual animals ([4]; day 13 post implant): 47.1 mm^3 and 56.4 mm^3 and 72.6 mm^3 and 48.7 mm^3 and 68.7 mm^3 and 59.9 mm^3
- tumor volume, individual animals ([4]; day 16 post implant): 65.3 mm^3 and 60.4 mm^3 and 98.2 mm^3 and 90.8 mm^3 and 83.5 mm^3 and 67.6 mm^3
- tumor volume, individual animals ([4]; day 20 post implant): 63.1 mm^3 and 42.0 mm^3 and 165.9 mm^3 and 151.0 mm^3 and 142.8 mm^3 and 93.1 mm^3
- tumor volume, individual animals ([4]; day 24 post implant): 161.4 mm^3 and 70.9 mm^3 and 266.6 mm^3 and 336.7 mm^3 and 299.1 mm^3 and 165.4 mm^3
- tumor volume, individual animals ([4]; day 27 post implant): 254.6 mm^3 and 0.0 mm^3 and 392.1 mm^3 and 447.0 mm^3 and 337.6 mm^3 and 231.0 mm^3
- tumor volume, individual animals ([4]; day 30 post implant): 352.6 mm^3 and 0.0 mm^3 and 661.5 mm^3 and 831.7 mm^3 and 494.8 mm^3 and 365.1 mm^3
- tumor volume, individual animals ([4]; day 34 post implant): 666.1 mm^3 and 15.4 mm^3 and 998.9 mm^3 and 1042.3 mm^3 and 655.6 mm^3 and 531.6 mm^3
- tumor volume, individual animals ([4]; day 38 post implant): 988.1 mm^3 and 63.1 mm^3 and 1005.8 mm^3 and 751.7 mm^3
- tumor volume, individual animals ([4]; day 41 post implant): 66.6 mm^3 and 1024.7 mm^3
- tumor growth delay in one mouse of the group ([4]; h1F6SEA 10 mg/kg, extended the length of the study): very robust tumor growth delay
- binding affinity to FcγRIIIA [5]: much higher binding affinity
